# Assay results from patent US20210340548A1.
# Tests used:
# Experiment in all cases: cell-based or functional assay
# [1] = target: Cry2 PHR (L348F)-p65 AD (Arabidopsis thaliana; human) (UniProt Q96524)
# [2] = target: Cry2 PHR (L348F)-p65 AD-NLSx2
# [3] = target: Cry2 PHR-p65 AD (Arabidopsis thaliana; human) (UniProt Q96524)
# [4] = target: Cry2 PHR-p65 AD-NLSx2 (Arabidopsis thaliana; human)
# [5] = target: NLSx2-p65 AD-Cry2 PHR (L348F) (human; Arabidopsis thaliana)
# [6] = target: NLSx2-p65 AD-Cry2 PHR (human; Arabidopsis thaliana)
# [7] = target: p65 AD-Cry2 535 (L348F) (human; Arabidopsis thaliana) (UniProt Q04206)
# [8] = target: p65 AD-Cry2 535 (human; Arabidopsis thaliana) (UniProt Q04206)
# [9] = target: p65 AD-Cry2 PHR (L348F) (human; Arabidopsis thaliana) (UniProt Q04206)
# [10] = target: p65 AD-Cry2 PHR (human; Arabidopsis thaliana) (UniProt Q04206)
Substance,Average of the Light/Dark ratio [1],Light/Dark [1],"Ub-ELuc luciferase, Dark [1]","Ub-ELuc luciferase, Light [1]",Average of the Light/Dark ratio [2],Light/Dark [2],"Ub-ELuc luciferase, Dark [2]","Ub-ELuc luciferase, Light [2]",Average of the Light/Dark ratio [3],Light/Dark [3],"Ub-ELuc luciferase, Dark [3]","Ub-ELuc luciferase, Light [3]",Average of the Light/Dark ratio [4],Light/Dark [4],"Ub-ELuc luciferase, Dark [4]","Ub-ELuc luciferase, Light [4]",Average of the Light/Dark ratio [5],Light/Dark [5],"Ub-ELuc luciferase, Dark [5]","Ub-ELuc luciferase, Light [5]",also measured
"TetR (I194T, 1-206)-SPKKK-CIB1 full",1.6,1.6,2.7 relative,4.3 relative,1,1.4,5.1 relative,6.8 relative,1.5,1.7,2.4 relative,4.1 relative,0.9,0.8,20.1 relative,16.6 relative,1.7,1.8,19.3 relative,34.3 relative,"Average of the Light/Dark ratio [6]: 1.9; Light/Dark [6]: 2.4; Ub-ELuc luciferase, Dark [6]: 21.9 relative; Ub-ELuc luciferase, Light [6]: 50.9 relative; Average of the Light/Dark ratio [7]: 2; Light/Dark [7]: 2.3; Ub-ELuc luciferase, Dark [7]: 4.8 relative; Ub-ELuc luciferase, Light [7]: 10.5 relative; Average of the Light/Dark ratio [8]: 2.1; Light/Dark [8]: 2.1; Ub-ELuc luciferase, Dark [8]: 4.3 relative; Ub-ELuc luciferase, Light [8]: 8.7 relative; Average of the Light/Dark ratio [9]: 1.7; Light/Dark [9]: 2.2; Ub-ELuc luciferase, Dark [9]: 8.3 relative; Ub-ELuc luciferase, Light [9]: 17.2 relative; Average of the Light/Dark ratio [10]: 1.6; Light/Dark [10]: 1.6; Ub-ELuc luciferase, Dark [10]: 13.8 relative; Ub-ELuc luciferase, Light [10]: 20.7 relative"
"TetR (I194T, 1-206)-SPKKK-CIB1 full no NLS",1.2,1.5,4.8 relative,7.2 relative,0.9,1.2,11.3 relative,12.4 relative,1.4,2,3 relative,5.4 relative,0.9,0.9,30.1 relative,25.2 relative,1.4,1.9,50.2 relative,86.8 relative,"Average of the Light/Dark ratio [6]: 1.6; Light/Dark [6]: 2.2; Ub-ELuc luciferase, Dark [6]: 56 relative; Ub-ELuc luciferase, Light [6]: 109 relative; Average of the Light/Dark ratio [7]: 2; Light/Dark [7]: 2.7; Ub-ELuc luciferase, Dark [7]: 9.3 relative; Ub-ELuc luciferase, Light [7]: 23.9 relative; Average of the Light/Dark ratio [8]: 2; Light/Dark [8]: 3.3; Ub-ELuc luciferase, Dark [8]: 10.4 relative; Ub-ELuc luciferase, Light [8]: 31.8 relative; Average of the Light/Dark ratio [9]: 1.4; Light/Dark [9]: 1.6; Ub-ELuc luciferase, Dark [9]: 33 relative; Ub-ELuc luciferase, Light [9]: 47.9 relative; Average of the Light/Dark ratio [10]: 1.5; Light/Dark [10]: 2; Ub-ELuc luciferase, Dark [10]: 36.2 relative; Ub-ELuc luciferase, Light [10]: 65.2 relative"
